Test results as given in US7494767 (FUNCTIONAL GENETICS, dated 2009).

B3: GAL4 DNA-binding domain-p1-p6 fusion protein (other)
chain: MKLLSSIEQACDICRLKKLKCSKEKPKCAKCLKNNWECRYSPKTKRSPLTRAHLTEVESRLERLEQLFLLIFPREDLDMILKMDSLQDIKALLTGLFVQDNVNKDAVTDRLASVETDMPLTLRQHRISATSSSEESSNKGQRQLTVSGKIWPSYKGRPGNFLQSRPEPTAPPFLQSRPEPTAPPEESFRSGVETTTPPQKQEPIDKELYPLTSLRSLFGNDPSSQ
notes: also called pGBT9-p1p6; Gag^p6

Key:
[1] = molecular target: B3; experiment: yeast 2-hybrid
[2] = molecular target: B3; experiment: yeast 2-hybrid, β-galactosidase; Tsg101 variant with p1-p6
[3] = molecular target: T1, GAL4 activation domain-Tsg101 fragment from aa139 to the C-terminus (yeast; human, UniProt Q99816 139-390); experiment: yeast 2-hybrid
T1 construct: also called 139-C
T1 sequence: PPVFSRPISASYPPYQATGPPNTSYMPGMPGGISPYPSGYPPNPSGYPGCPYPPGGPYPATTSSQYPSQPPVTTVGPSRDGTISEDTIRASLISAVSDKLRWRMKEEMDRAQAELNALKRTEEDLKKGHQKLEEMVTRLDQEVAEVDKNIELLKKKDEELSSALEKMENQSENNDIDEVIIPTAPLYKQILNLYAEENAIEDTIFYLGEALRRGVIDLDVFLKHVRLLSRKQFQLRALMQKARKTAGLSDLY

[4] = molecular target: T2, GAL4 activation domain-Tsg101 N-terminal 311-residue fragment (yeast; human, UniProt Q99816 1-311); experiment: yeast 2-hybrid
T2 construct: also called N-311
T2 sequence: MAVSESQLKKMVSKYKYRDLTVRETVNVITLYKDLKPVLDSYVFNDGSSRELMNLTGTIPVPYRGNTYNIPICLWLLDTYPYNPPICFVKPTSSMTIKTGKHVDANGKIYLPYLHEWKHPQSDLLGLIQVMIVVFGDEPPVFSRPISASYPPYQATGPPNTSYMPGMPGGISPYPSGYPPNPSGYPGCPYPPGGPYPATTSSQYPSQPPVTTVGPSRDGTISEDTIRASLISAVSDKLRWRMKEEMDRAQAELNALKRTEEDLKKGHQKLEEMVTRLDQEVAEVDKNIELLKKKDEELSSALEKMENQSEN

[5] = molecular target: T3, GAL4 activation domain-Tsg101 fusion protein (wild-type human Tsg101) (yeast; human, UniProt Q99816 1-390); experiment: yeast 2-hybrid, LacZ reporter
T3 construct: also called hTsg101; product of the human tumor susceptibility gene Tsg101
T3 sequence: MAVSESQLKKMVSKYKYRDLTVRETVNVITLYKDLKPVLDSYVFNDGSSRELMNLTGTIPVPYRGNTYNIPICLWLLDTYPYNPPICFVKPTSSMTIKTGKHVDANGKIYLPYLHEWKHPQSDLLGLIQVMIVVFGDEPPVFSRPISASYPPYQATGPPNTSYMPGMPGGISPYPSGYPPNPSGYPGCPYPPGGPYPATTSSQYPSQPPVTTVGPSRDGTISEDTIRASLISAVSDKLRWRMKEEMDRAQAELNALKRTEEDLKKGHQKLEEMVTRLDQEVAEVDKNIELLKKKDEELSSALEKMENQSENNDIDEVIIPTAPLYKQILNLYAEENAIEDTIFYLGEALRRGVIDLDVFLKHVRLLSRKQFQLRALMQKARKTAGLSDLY

[6] = molecular target: T3, GAL4 activation domain-Tsg101 fusion …; experiment: yeast 2-hybrid, β-galactosidase; p1-p6 variant with Tsg101

B1: GAL4 activation domain-Tsg101 N-terminal 155-residue fragment (other)
chain: MAVSESQLKKMVSKYKYRDLTVRETVNVITLYKDLKPVLDSYVFNDGSSRELMNLTGTIPVPYRGNTYNIPICLWLLDTYPYNPPICFVKPTSSMTIKTGKHVDANGKIYLPYLHEWKHPQSDLLGLIQVMIVVFGDEPPVFSRPISASYPPYQA
notes: also called N-155
binding result [1]: binds

B2: GAL4 activation domain-Tsg101 with Ala for 149Ser-Tyr150 (other)
chain: MAVSESQLKKMVSKYKYRDLTVRETVNVITLYKDLKPVLDSYVFNDGSSRELMNLTGTIPVPYRGNTYNIPICLWLLDTYPYNPPICFVKPTSSMTIKTGKHVDANGKIYLPYLHEWKHPQSDLLGLIQVMIVVFGDEPPVFSRPISAAAPPYQATGPPNTSYMPGMPGGISPYPSGYPPNPSGYPGCPYPPGGPYPATTSSQYPSQPPVTTVGPSRDGTISEDTIRASLISAVSDKLRWRMKEEMDRAQAELNALKRTEEDLKKGHQKLEEMVTRLDQEVAEVDKNIELLKKKDEELSSALEKMENQSENNDIDEVIIPTAPLYKQILNLYAEENAIEDTIFYLGEALRRGVIDLDVFLKHVRLLSRKQFQLRALMQKARKTAGLSDLY
notes: also called mutation of 149Ser-Tyr150
binding result [2]: binds

B3
binding result [3]: no binding | binding result [4]: binds | binding result [5]: binds

B4: GAL4 DNA-binding domain-p1-p6 K493R (other)
chain: MKLLSSIEQACDICRLKKLKCSKEKPKCAKCLKNNWECRYSPKTKRSPLTRAHLTEVESRLERLEQLFLLIFPREDLDMILKMDSLQDIKALLTGLFVQDNVNKDAVTDRLASVETDMPLTLRQHRISATSSSEESSNKGQRQLTVSGKIWPSYKGRPGNFLQSRPEPTAPPFLQSRPEPTAPPEESFRSGVETTTPPQKQEPIDRELYPLTSLRSLFGNDPSSQ
binding result [6]: binds

B5: GAL4 DNA-binding domain-p1-p6 K487,493R (other)
chain: MKLLSSIEQACDICRLKKLKCSKEKPKCAKCLKNNWECRYSPKTKRSPLTRAHLTEVESRLERLEQLFLLIFPREDLDMILKMDSLQDIKALLTGLFVQDNVNKDAVTDRLASVETDMPLTLRQHRISATSSSEESSNKGQRQLTVSGKIWPSYKGRPGNFLQSRPEPTAPPFLQSRPEPTAPPEESFRSGVETTTPPQRQEPIDRELYPLTSLRSLFGNDPSSQ
binding result [6]: binds

B6: GAL4 activation domain-Tsg101 fragment 241-C (other)
chain: RMKEEMDRAQAELNALKRTEEDLKKGHQKLEEMVTRLDQEVAEVDKNIELLKKKDEELSSALEKMENQSENNDIDEVIIPTAPLYKQILNLYAEENAIEDTIFYLGEALRRGVIDLDVFLKHVRLLSRKQFQLRALMQKARKTAGLSDLY
binding result [1]: no binding

B7: GAL4 activation domain-Tsg101 fragment 311-C (other)
chain: NNDIDEVIIPTAPLYKQILNLYAEENAIEDTIFYLGEALRRGVIDLDVFLKHVRLLSRKQFQLRALMQKARKTAGLSDLY
binding result [1]: no binding

B8: GAL4 activation domain-Tsg101 N-terminal 215-residue fragment (other)
chain: MAVSESQLKKMVSKYKYRDLTVRETVNVITLYKDLKPVLDSYVFNDGSSRELMNLTGTIPVPYRGNTYNIPICLWLLDTYPYNPPICFVKPTSSMTIKTGKHVDANGKIYLPYLHEWKHPQSDLLGLIQVMIVVFGDEPPVFSRPISASYPPYQATGPPNTSYMPGMPGGISPYPSGYPPNPSGYPGCPYPPGGPYPATTSSQYPSQPPVTTVGP
notes: also called N-215
binding result [1]: binds
